# Test results reported in the supplement of paper PMC10567573.
# B1: TLE6 (parent)
# chain: FWHDTLTEQLWRIFAGVHDEKAKP
# Variants of: B1
# Test: protein stability index of a GFP-peptide fusion (GPS, HEK-293T) (PSI 1-6); higher = more stable
# Settings: c terminus: a fixed tail appended
# 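Further: lentivirally expressed fusions sorted by FACS into six bins by GFP to DsRed ratio, PSI derived from sequencing read proportions per bin multiplied by bin number.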
row,Variant,protein stability index
1,FWHDTLTEQLWRIFAGVTDEKAKP [H18T],2.13
2,FWHDTLTEQLWRIFAGVHDEKAAP [K23A],1.78
3,FWHDTLTEQLWRIFAGVHWEKAKP [D19W],3.85
4,FWHDTLTEQLWRPFAGVHDEKAKP [I13P],2.85
5,FNHDTLTEQLWRIFAGVHDEKAKP [W2N],2.1
6,FWHDTLTEQLWRIFAGVHDEKAKN [P24N],2.68
7,HWHDTLTEQLWRIFAGVHDEKAKP [F1H],1.96
8,FWHDTLTEQLWRIFAGVHDEKAKS [P24S],2.07
9,FWHDTLTEQLWRIFAGVIDEKAKP [H18I],2.92
10,FSHDTLTEQLWRIFAGVHDEKAKP [W2S],1.62
11,FWHDTLTEQLWRIFAGVHDEKAKT [P24T],1.86
12,FWHDTLTEQLWRIFAGVSDEKAKP [H18S],2.72
13,FWHDTLTQQLWRIFAGVHDEKAKP [E8Q],2.64
14,AWHDTLTEQLWRIFAGVHDEKAKP [F1A],2.28
15,FWADTLTEQLWRIFAGVHDEKAKP [H3A],3.32
16,FWHDTLTEQLWRIIAGVHDEKAKP [F14I],2.56
17,RWHDTLTEQLWRIFAGVHDEKAKP [F1R],2.48
18,FWHDTSTEQLWRIFAGVHDEKAKP [L6S],2.66
19,FWHDTLTEQLWRDFAGVHDEKAKP [I13D],1.78
20,FWHDTLTEQLLRIFAGVHDEKAKP [W11L],1.85
21,FWHDTLTEQLWRIFKGVHDEKAKP [A15K],1.81
22,FWHDTLTEQLWRIFAGVHDEKAKI [P24I],3.17
23,FWHDALTEQLWRIFAGVHDEKAKP [T5A],1.25
24,FWHDTLTEQLWRIFAGVHDEKSKP [A22S],2.06

row,Variant,protein stability index
1,FWHDTLTEQLWRIFAGVADEKAKP [H18A],2.38
2,FWHDTLTEQLWRIFAGVHIEKAKP [D19I],2.08
3,FWHDTLTIQLWRIFAGVHDEKAKP [E8I],1.66
4,FWHDTLTEFLWRIFAGVHDEKAKP [Q9F],1.97
5,SWHDTLTEQLWRIFAGVHDEKAKP [F1S],1.91
6,FWHDTLTEQLWRKFAGVHDEKAKP [I13K],2.53
7,FWHDTLTEQLWRIFFGVHDEKAKP [A15F],1.73
8,FWHDTLTSQLWRIFAGVHDEKAKP [E8S],1.64
9,FWHDTLTVQLWRIFAGVHDEKAKP [E8V],2.95
10,FWHDTLTESLWRIFAGVHDEKAKP [Q9S],2.04
11,FWHDTLGEQLWRIFAGVHDEKAKP [T7G],2.28
12,FWHDTLTEQLWNIFAGVHDEKAKP [R12N],2.2
13,FWHDTLTEQLWRINAGVHDEKAKP [F14N],1.45
14,FWHETLTEQLWRIFAGVHDEKAKP [D4E],1.99
15,FWHDTLTEQLWRIYAGVHDEKAKP [F14Y],2.13
16,FWHDTLTEQLWRIFAGVHDMKAKP [E20M],2.88
17,FWHDTLTEQLWRIFAGVHDEKYKP [A22Y],1.37
18,FWHDTLQEQLWRIFAGVHDEKAKP [T7Q],2.46
19,FWHDTLTEQLWRIFAGGHDEKAKP [V17G],2.26
20,FFHDTLTEQLWRIFAGVHDEKAKP [W2F],1.9
21,FWHDTLTEQCWRIFAGVHDEKAKP [L10C],1.94
22,FWHDTLTEQLWRIFAGVHDEKPKP [A22P],2.11
23,FWFDTLTEQLWRIFAGVHDEKAKP [H3F],1.96
24,FWHDTLTEQLWREFAGVHDEKAKP [I13E],2.99

row,Variant,protein stability index
1,FWPDTLTEQLWRIFAGVHDEKAKP [H3P],2.41
2,FWHDTLTELLWRIFAGVHDEKAKP [Q9L],1.79
3,FWHDTLTEQLWRIFAGVHDEKATP [K23T],2.3
4,FWHDTLREQLWRIFAGVHDEKAKP [T7R],1.89
5,FWHDTLTEQLWRIFAGVHDEKAKG [P24G],1.66
6,FWHWTLTEQLWRIFAGVHDEKAKP [D4W],1.29
7,FWHDTLTEQFWRIFAGVHDEKAKP [L10F],1.68
8,FWHDTLTEQLWRIFAGWHDEKAKP [V17W],1.61
9,FWHDTLTEQLWRIFAGVCDEKAKP [H18C],2.24
10,FWHDTLTEQLWRNFAGVHDEKAKP [I13N],1.59
11,FWHQTLTEQLWRIFAGVHDEKAKP [D4Q],2.29
12,FWHDTLTEQLWRIFAGVHDEKCKP [A22C],1.81
13,FWHDTWTEQLWRIFAGVHDEKAKP [L6W],1.27
14,FWHDTLTFQLWRIFAGVHDEKAKP [E8F],2.17
15,FWRDTLTEQLWRIFAGVHDEKAKP [H3R],1.88
16,FWHDTLTEQLWRIFAGVHDEPAKP [K21P],1.47
17,FWHDTLTEELWRIFAGVHDEKAKP [Q9E],1.58
18,FWHDTLTCQLWRIFAGVHDEKAKP [E8C],1.62
19,FWHDTLTEQLWRIFAGVHDEKAIP [K23I],1.64
20,FWHDTLTEQLWRIFAGVLDEKAKP [H18L],2.67
21,FWHDTLTEQLWGIFAGVHDEKAKP [R12G],2.23
22,FWHDTLTEGLWRIFAGVHDEKAKP [Q9G],2.65
23,FWHDTLTEQLWRIPAGVHDEKAKP [F14P],1.98
24,FWHDTLTEILWRIFAGVHDEKAKP [Q9I],2.55

row,Variant,protein stability index
1,FWHDTLTEQLWRIFAGVHDEKAKC [P24C],2.95
2,FWHDTLTEQLWRIFAIVHDEKAKP [G16I],1.89
3,FWHDTATEQLWRIFAGVHDEKAKP [L6A],2.67
4,FWHDTDTEQLWRIFAGVHDEKAKP [L6D],1.46
5,FWIDTLTEQLWRIFAGVHDEKAKP [H3I],2.7
6,FWHDTLTEHLWRIFAGVHDEKAKP [Q9H],2.59
7,FWHDTLTEQLWRIFAGVHDEKAKQ [P24Q],1.9
8,FWHDTLTEQLWRIFAGVHDQKAKP [E20Q],1.96
9,FWHDTLTEQLHRIFAGVHDEKAKP [W11H],2.52
10,FWHDTLTEQMWRIFAGVHDEKAKP [L10M],1.88
11,FWHDTLTEQWWRIFAGVHDEKAKP [L10W],2.42
12,FWHDTLTEQLQRIFAGVHDEKAKP [W11Q],2.21
13,FWHDTLTEQSWRIFAGVHDEKAKP [L10S],2.61
14,FWHDTLTEQLWRIFAGVHCEKAKP [D19C],2.06
15,FWHDTLVEQLWRIFAGVHDEKAKP [T7V],1.86
16,FWHDQLTEQLWRIFAGVHDEKAKP [T5Q],1.22
17,FWHDYLTEQLWRIFAGVHDEKAKP [T5Y],2.35
18,FWEDTLTEQLWRIFAGVHDEKAKP [H3E],2.47
19,FWHDTLTEQLWRMFAGVHDEKAKP [I13M],2.13
20,FWHDTLTEQLWRIFAGVHDEKAKR [P24R],1.69
21,FWHGTLTEQLWRIFAGVHDEKAKP [D4G],2.07
22,FWHDTLTEQLWAIFAGVHDEKAKP [R12A],1.91
